Numbered stars: 1 amine (or outer) side, 2 acyl side, 3 side chain; on linkers, the order of the positions; unused ones are H or OH. Bridge positions count the residues as written; N and C are the ends. Side chains are listed from the residue outwards. Ends that are not written are not given here. * marks the point of attachment. C20 diacid = O=C(O)CCCCCCCCCCCCCCCCCCC(=O)*; γGlu = O=C(O)[C@H](CCC(=O)[*:2])N[*:1]
T1: human calcitonin receptor (human, UniProt P30988 25-474)
T1 construct: whole, on cells; Membranes of BHK cells stably transfected with the human calcitonin receptor (Assay VII); also called hCTR; hCT
T1 sequence (looked up): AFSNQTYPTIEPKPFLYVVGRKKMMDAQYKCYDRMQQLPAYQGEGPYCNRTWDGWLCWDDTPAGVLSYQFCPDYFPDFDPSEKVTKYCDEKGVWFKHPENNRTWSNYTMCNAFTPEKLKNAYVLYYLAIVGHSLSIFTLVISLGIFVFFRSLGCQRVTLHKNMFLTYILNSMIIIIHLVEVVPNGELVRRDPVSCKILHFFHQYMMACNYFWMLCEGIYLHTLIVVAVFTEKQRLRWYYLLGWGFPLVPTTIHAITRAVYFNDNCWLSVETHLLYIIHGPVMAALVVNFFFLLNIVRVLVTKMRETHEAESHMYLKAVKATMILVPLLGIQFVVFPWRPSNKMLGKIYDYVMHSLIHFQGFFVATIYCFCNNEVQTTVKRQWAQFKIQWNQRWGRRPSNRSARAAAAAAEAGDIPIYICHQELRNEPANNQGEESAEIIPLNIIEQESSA


Tests used:
[1] = target: T1, human calcitonin receptor; test: ratio of IC50 at hCTR over IC50 at hAmylin-R (SPA competition assays)
Procedure, shortened: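 Membranes (35 ng/μL final) + SPA beads, 50 mM Hepes pH 7.4 buffer with 1 mM CaCl2, 5 mM MgCl₂, 0.1% OA, 0.02% Tween20; 120 min, 25° C, shaking; centrifuged, counted; IC₅₀ by one-site binding competition.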

[2] = target: T1, human calcitonin receptor; test: SPA competition against 125I-calcitonin, membranes of BHK cells with human calcitonin receptor (Assay VII)
Procedure, shortened: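 BHK hCTR membranes 35 ng/μL + SPA beads 0.05 mg/well; buffer 50 mM Hepes pH 7.4, 1 mM CaCl2, 5 mM MgCl₂, 0.1% OA, 0.02% Tween20. 120 min, 25° C., shaking. Scintillation count; IC50 by one-site binding competition.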

Row | Binder | Ratio hCT/hAmylin binding [1] | IC50 [2] [nM]
1 | K([γGlu-γGlu-C20 diacid])CNTATCATQRLAEFLRHSSNNPGAILSSTNVGPETY-NH2 (disulfide 2-7; N-terminus assumed; SMILES CC[C@H](C)[C@H](NC(=O)[C@H](C)NC(=O)CNC(=O)[C@@H]1CCCN1C(=O)[C@H](CC(N)=O)NC(=O)[C@H](CC(N)=O)NC(=O)[C@H](CO)NC(=O)[C@H](CO)NC(=O)[C@H](Cc1c[nH]cn1)NC(=O)[C@H](CCCNC(=N)N)NC(=O)[C@H](CC(C)C)NC(=O)[C@H](Cc1ccccc1)NC(=O)[C@H](CCC(=O)O)NC(=O)[C@H](C)NC(=O)[C@H](CC(C)C)NC(=O)[C@H](CCCNC(=N)N)NC(=O)[C@H](CCC(N)=O)NC(=O)[C@@H](NC(=O)[C@H](C)NC(=O)[C@@H]1CSSC[C@H](NC(=O)[C@@H](N)CCCCNC(=O)CC[C@H](NC(=O)CC[C@H](NC(=O)CCCCCCCCCCCCCCCCCCC(=O)O)C(=O)O)C(=O)O)C(=O)N[C@@H](CC(N)=O)C(=O)N[C@@H]([C@@H](C)O)C(=O)N[C@@H](C)C(=O)N[C@@H]([C@@H](C)O)C(=O)N1)[C@@H](C)O)C(=O)N[C@@H](CC(C)C)C(=O)N[C@@H](CO)C(=O)N[C@@H](CO)C(=O)N[C@H](C(=O)N[C@@H](CC(N)=O)C(=O)N[C@H](C(=O)NCC(=O)N1CCC[C@H]1C(=O)N[C@@H](CCC(=O)O)C(=O)N[C@H](C(=O)N[C@@H](Cc1ccc(O)cc1)C(N)=O)[C@@H](C)O)C(C)C)[C@@H](C)O) | 7.8 | 9.29
2 | K([γGlu-γGlu-C20 diacid])CNTATCATQRLASFLRHSSPNFGAIPSSTNVGPETY-NH2 (disulfide 2-7; N-terminus assumed; SMILES CC[C@H](C)[C@H](NC(=O)[C@H](C)NC(=O)CNC(=O)[C@H](Cc1ccccc1)NC(=O)[C@H](CC(N)=O)NC(=O)[C@@H]1CCCN1C(=O)[C@H](CO)NC(=O)[C@H](CO)NC(=O)[C@H](Cc1c[nH]cn1)NC(=O)[C@H](CCCNC(=N)N)NC(=O)[C@H](CC(C)C)NC(=O)[C@H](Cc1ccccc1)NC(=O)[C@H](CO)NC(=O)[C@H](C)NC(=O)[C@H](CC(C)C)NC(=O)[C@H](CCCNC(=N)N)NC(=O)[C@H](CCC(N)=O)NC(=O)[C@@H](NC(=O)[C@H](C)NC(=O)[C@@H]1CSSC[C@H](NC(=O)[C@@H](N)CCCCNC(=O)CC[C@H](NC(=O)CC[C@H](NC(=O)CCCCCCCCCCCCCCCCCCC(=O)O)C(=O)O)C(=O)O)C(=O)N[C@@H](CC(N)=O)C(=O)N[C@@H]([C@@H](C)O)C(=O)N[C@@H](C)C(=O)N[C@@H]([C@@H](C)O)C(=O)N1)[C@@H](C)O)C(=O)N1CCC[C@H]1C(=O)N[C@@H](CO)C(=O)N[C@@H](CO)C(=O)N[C@H](C(=O)N[C@@H](CC(N)=O)C(=O)N[C@H](C(=O)NCC(=O)N1CCC[C@H]1C(=O)N[C@@H](CCC(=O)O)C(=O)N[C@H](C(=O)N[C@@H](Cc1ccc(O)cc1)C(N)=O)[C@@H](C)O)C(C)C)[C@@H](C)O, also called compound 120) | 45.3 | 3.44

— patent US20140087995A1 (published 2014)
